This note sets out measurements from the supplement of paper PMC9112550, “Optimization of the antimicrobial peptide Bac7 by deep mutational scanning” (BMC Biology, 2022).

The data set relates to Escherichia coli TOP10. As to the kind of experiment: shrunken log2 fold change of peptide-encoding DNA abundance (4.5 h post-induction vs induction); higher = less antimicrobial activity (less host growth inhibition). Conditions: time post-induction: 4.5 h; library: site-saturation at positions 5, 18, 19, 20.
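Also: peptides expressed intracellularly from a pBAD plasmid library in pooled LB shake-flask culture, induced with 0.3% L-arabinose, DNA abundance read by NGS, three biological replicates, DESeq2 with apeglm shrinkage.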

Turning to RRIRHRPPRLPRPRPRPNSMPRP, the “shrunken log2 fold change” value is -0.401. For RRIRGRPPRLPRPRPRPISAPRP, the “shrunken log2 fold change” value was found to be 0.363.

As for RRIRHRPPRLPRPRPRPHKCPRP, the “shrunken log2 fold change” value is -0.11. Consider RRIRSRPPRLPRPRPRPFYWPRP, for which the “shrunken log2 fold change” value is -0.0331.

Take RRIRHRPPRLPRPRPRPHMMPRP: the “shrunken log2 fold change” value was -0.321. The figure for RRIRHRPPRLPRPRPRPMPTPRP is 0.0549; for RRIRHRPPRLPRPRPRPNHPPRP it is -0.254; for RRIRGRPPRLPRPRPRPKCCPRP it is 0.56. Take RRIRQRPPRLPRPRPRPYTCPRP: the “shrunken log2 fold change” value amounted to 0.0526. Then RRIRFRPPRLPRPRPRPRMHPRP, with -0.0776; and RRIRLRPPRLPRPRPRPMSHPRP, with 0.0207; and RRIRPRPPRLPRPRPRPMGGPRP, with 0.113. In the case of RRIRQRPPRLPRPRPRPMWWPRP, the “shrunken log2 fold change” value is 0.128. The figure for RRIRARPPRLPRPRPRPPWCPRP is 0.373. Then RRIRARPPRLPRPRPRPMYMPRP, with -0.354; and RRIRERPPRLPRPRPRPPSRPRP, with 0.577; and RRIRTRPPRLPRPRPRPSLTPRP, with -0.452. The figure for RRIRTRPPRLPRPRPRPYSTPRP is -0.0702; for RRIRCRPPRLPRPRPRPQRTPRP it is 0.288; for RRIRGRPPRLPRPRPRPPAPPRP it is 1.6. RRIRLRPPRLPRPRPRPHWSPRP: the “shrunken log2 fold change” value was found to be 0.0161.

RRIRIRPPRLPRPRPRPQQNPRP: the “shrunken log2 fold change” value was -0.318. On to RRIRTRPPRLPRPRPRPCLYPRP, for which the “shrunken log2 fold change” value was -0.342. Then RRIRGRPPRLPRPRPRPNARPRP, with 0.501. Then RRIRIRPPRLPRPRPRPEYGPRP, with -0.0842. As to RRIRVRPPRLPRPRPRPWKFPRP, the “shrunken log2 fold change” value is -0.00968. For RRIRPRPPRLPRPRPRPGYTPRP, the “shrunken log2 fold change” value is -0.0764.

Regarding RRIRWRPPRLPRPRPRPHCEPRP, the “shrunken log2 fold change” value is -0.262. The figure for RRIRERPPRLPRPRPRPYEHPRP is -0.278; for RRIRHRPPRLPRPRPRPKGAPRP it is -0.011. The figure for RRIRPRPPRLPRPRPRPGVGPRP is 0.53. Then RRIRTRPPRLPRPRPRPSGKPRP, with -0.0608; and RRIRIRPPRLPRPRPRPHQGPRP, with -0.117.

As for RRIRMRPPRLPRPRPRPGNMPRP, the “shrunken log2 fold change” value was -0.331. The figure for RRIRDRPPRLPRPRPRPSHRPRP is 0.102; for RRIRPRPPRLPRPRPRPTQVPRP it is 0.124. Then RRIRMRPPRLPRPRPRPYAFPRP, with -0.0624; and RRIRYRPPRLPRPRPRPWWAPRP, with -0.19. With RRIRHRPPRLPRPRPRPNSRPRP, the “shrunken log2 fold change” value is -0.0698. The figure for RRIRIRPPRLPRPRPRPMGEPRP is -0.0442; for RRIRPRPPRLPRPRPRPVNQPRP it is 0.223; for RRIRGRPPRLPRPRPRPYWMPRP it is -0.34. As to RRIRTRPPRLPRPRPRPAYCPRP, the “shrunken log2 fold change” value is -0.0119. Then RRIRTRPPRLPRPRPRPPSNPRP, with -0.244; and RRIRWRPPRLPRPRPRPQWWPRP, with 0.00856; and RRIRVRPPRLPRPRPRPGYTPRP, with -0.208. Then RRIRFRPPRLPRPRPRPKSIPRP, with -0.0406; and RRIRERPPRLPRPRPRPKMWPRP, with -0.0633. The figure for RRIRIRPPRLPRPRPRPVGLPRP is -0.0289; for RRIRFRPPRLPRPRPRPMASPRP it is 0.037. As to RRIRTRPPRLPRPRPRPLCSPRP, the “shrunken log2 fold change” value was -0.27. Then RRIRDRPPRLPRPRPRPMLNPRP, with 0.21; and RRIRQRPPRLPRPRPRPDGTPRP, with 0.103. The figure for RRIRERPPRLPRPRPRPKACPRP is 0.0288; for RRIRHRPPRLPRPRPRPHVPPRP it is 0.084; for RRIRTRPPRLPRPRPRPEAKPRP it is -0.0276. Then RRIRCRPPRLPRPRPRPIMRPRP, with 0.415; and RRIRDRPPRLPRPRPRPWPIPRP, with 0.00865. Regarding RRIRSRPPRLPRPRPRPEPAPRP, the “shrunken log2 fold change” value turned out to be 0.912. Consider RRIRDRPPRLPRPRPRPRGPPRP, for which the “shrunken log2 fold change” value amounted to 0.366. The figure for RRIRLRPPRLPRPRPRPHESPRP is -0.0598; for RRIRKRPPRLPRPRPRPVFVPRP it is 0.141; for RRIRFRPPRLPRPRPRPAIIPRP it is -0.149. Then RRIRHRPPRLPRPRPRPFERPRP, with -0.128.

For RRIRRRPPRLPRPRPRPDTNPRP, the “shrunken log2 fold change” value amounted to 1.31. Then RRIRFRPPRLPRPRPRPAFTPRP, with -0.224. Then RRIRERPPRLPRPRPRPDAAPRP, with 0.635.

On to RRIRFRPPRLPRPRPRPANTPRP, for which the “shrunken log2 fold change” value is -0.209. The figure for RRIRDRPPRLPRPRPRPPDVPRP is 0.302; for RRIRDRPPRLPRPRPRPHFVPRP it is -0.193; for RRIRIRPPRLPRPRPRPRRVPRP it is -0.0339.

In the case of RRIRARPPRLPRPRPRPLNYPRP, the “shrunken log2 fold change” value was 0.0659. The figure for RRIRRRPPRLPRPRPRPAGPPRP is 0.446; for RRIRFRPPRLPRPRPRPQGHPRP it is 0.0395. For the sequence RRIRKRPPRLPRPRPRPMICPRP, the “shrunken log2 fold change” value stood at 0.0303. Consider RRIRLRPPRLPRPRPRPLILPRP, for which the “shrunken log2 fold change” value was -0.429.

Consider RRIRFRPPRLPRPRPRPMGSPRP, for which the “shrunken log2 fold change” value was -0.22.

Consider RRIRMRPPRLPRPRPRPYEGPRP, for which the “shrunken log2 fold change” value is -0.13. Then RRIRSRPPRLPRPRPRPRCWPRP, with 0.329. The figure for RRIRGRPPRLPRPRPRPRCHPRP is 0.564; for RRIRIRPPRLPRPRPRPMNAPRP it is -0.0262; for RRIRDRPPRLPRPRPRPTMAPRP it is 0.695.

Take RRIRMRPPRLPRPRPRPVWYPRP: the “shrunken log2 fold change” value was -0.0263. For the sequence RRIRHRPPRLPRPRPRPCKMPRP, the “shrunken log2 fold change” value is -0.134. Then RRIRRRPPRLPRPRPRPDVVPRP, with -0.0225; and RRIRARPPRLPRPRPRPQQPPRP, with 0.0738; and RRIRNRPPRLPRPRPRPRYMPRP, with -1.3. RRIRERPPRLPRPRPRPKITPRP: the “shrunken log2 fold change” value is -0.514. Then RRIRMRPPRLPRPRPRPLDAPRP, with 1.74; and RRIRERPPRLPRPRPRPDQRPRP, with -0.48.

As for RRIRYRPPRLPRPRPRPFREPRP, the “shrunken log2 fold change” value is -0.35.

On to RRIRYRPPRLPRPRPRPYGTPRP, for which the “shrunken log2 fold change” value was -0.0957. Then RRIRMRPPRLPRPRPRPATKPRP, with 0.103.

Turning to RRIRCRPPRLPRPRPRPLMEPRP, the “shrunken log2 fold change” value is -0.0946.

Regarding RRIRRRPPRLPRPRPRPCEAPRP, the “shrunken log2 fold change” value was found to be 0.127.

In the case of RRIRGRPPRLPRPRPRPWTGPRP, the “shrunken log2 fold change” value was -0.0411. The figure for RRIRIRPPRLPRPRPRPSQVPRP is -0.186; for RRIRVRPPRLPRPRPRPECHPRP it is 0.241. Turning to RRIRNRPPRLPRPRPRPNHGPRP, the “shrunken log2 fold change” value is -0.0113. The figure for RRIRSRPPRLPRPRPRPHDPPRP is -0.0194. The figure for RRIRFRPPRLPRPRPRPEEYPRP is -0.00963; for RRIRRRPPRLPRPRPRPLKLPRP it is -0.0808. Then RRIRFRPPRLPRPRPRPKLWPRP, with 0.287. RRIRKRPPRLPRPRPRPSWAPRP: the “shrunken log2 fold change” value came out at 0.186.

Take RRIRERPPRLPRPRPRPEGPPRP: the “shrunken log2 fold change” value was found to be 0.23. Then RRIRYRPPRLPRPRPRPQAWPRP, with 0.0215; and RRIRHRPPRLPRPRPRPWPMPRP, with 0.0159. Then RRIRQRPPRLPRPRPRPDSQPRP, with 0.0234; and RRIRFRPPRLPRPRPRPENEPRP, with 0.15; and RRIRIRPPRLPRPRPRPTQAPRP, with -0.00254.

Take RRIRFRPPRLPRPRPRPFGKPRP: the “shrunken log2 fold change” value is -0.00111. The figure for RRIRYRPPRLPRPRPRPIWAPRP is -0.089. In the case of RRIRFRPPRLPRPRPRPNWVPRP, the “shrunken log2 fold change” value was -0.126.

Consider RRIRQRPPRLPRPRPRPDQYPRP, for which the “shrunken log2 fold change” value is -0.0114. Then RRIRFRPPRLPRPRPRPIMLPRP, with -0.205; and RRIRLRPPRLPRPRPRPAPDPRP, with 0.215. Then RRIRVRPPRLPRPRPRPPSHPRP, with -0.0316; and RRIRYRPPRLPRPRPRPVVNPRP, with -0.683. The figure for RRIRMRPPRLPRPRPRPRNNPRP is 0.063. With RRIRMRPPRLPRPRPRPMSQPRP, the “shrunken log2 fold change” value was found to be 0.0528. In the case of RRIRWRPPRLPRPRPRPRWIPRP, the “shrunken log2 fold change” value came to 0.211. With RRIRNRPPRLPRPRPRPVGKPRP, the “shrunken log2 fold change” value is 0.028. The figure for RRIRDRPPRLPRPRPRPHLHPRP is -0.0995. Then RRIRPRPPRLPRPRPRPWDTPRP, with -0.743. The figure for RRIRARPPRLPRPRPRPHPEPRP is 0.7.
